Assay results reported in PMC11445502, “CDK phosphorylation of Sfr1 downregulates Rad51 function in late-meiotic homolog invasions” (The EMBO Journal, 2024).
Values belong to the molecule of their own block, whether it stands above or below them.

What was measured:
Rad51 [1] = biological target: Rad51 (UniProt P36601); experiment: focus co-localisation on nuclear spreads; conditions: reference: EGFP-Sfr1 wild type; sites T73,T89,S109,S116,S147,T152,S165
Rad51 [2] = biological target: Rad51 (UniProt P36601); experiment: GST pulldown from mixed bacterial lysates; conditions: reference: wild-type GST-Sfr1; sites T73,T89,S109,S116,S147,T152,S165
GST-Sfr1-WI = biological target: T1, GST-Sfr1-WI (S. pombe, UniProt Q9USV1 1-299, Lys93 to Ala | Lys94 to Ala | Arg95 to Ala | Lys157 to Ala | Arg158 to Ala | …); experiment: pull-down; GST-Sfr1 lysates (~2 mg) and Rad51 extract (75 ug) from E. coli mixed, Glutathione Sepharose 4B, 1 h at 4 °C; pulldown buffer 25 mM HEPES-KOH pH 7.5, 150 mM NaCl, 3.5 mM MgCl2, 0.5 mM DTT, 0.05 mg/ml BSA, 10% glycerol, 0.05% Igepal; western blot anti-GST and anti-Rad51; Rad51/GST ratio quantified; conditions: partners not purified
T1 construct: Sfr1, S. pombe, seven arginine and lysine residues of Site 1 and Site 2 changed to alanine; pGEX-4T-1 should put GST at the N-terminus (surmised); Partly degraded as m1; also called pGEX-4T-1 sfr1-WI (CMC98); source: E. coli BL21 DE3, in cleared lysate
T1 sequence (looked up): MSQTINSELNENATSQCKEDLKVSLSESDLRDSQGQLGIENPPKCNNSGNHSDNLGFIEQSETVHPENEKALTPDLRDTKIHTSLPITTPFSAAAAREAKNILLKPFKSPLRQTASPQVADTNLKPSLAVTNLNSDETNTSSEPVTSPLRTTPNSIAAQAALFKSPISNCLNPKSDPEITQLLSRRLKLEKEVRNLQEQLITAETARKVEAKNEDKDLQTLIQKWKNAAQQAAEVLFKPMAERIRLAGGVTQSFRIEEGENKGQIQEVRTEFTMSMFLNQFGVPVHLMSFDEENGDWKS

GST-Sfr1-7A = biological target: T2, GST-Sfr1-7A (S. pombe, UniProt Q9USV1 1-299, Thr73 to Ala | Thr89 to Ala | Ser109 to Ala | Ser116 to Ala | Ser147 to Ala | …); experiment: as above; conditions: partners not purified
T2 construct: Sfr1, S. pombe, all seven putative CDK sites changed to alanine; pGEX-4T-1 should put GST at the N-terminus (surmised); Partly degraded as m1; also called pGEX-4T-1 sfr1-7A (CMC102); source: E. coli BL21 DE3, in cleared lysate
T2 sequence (looked up): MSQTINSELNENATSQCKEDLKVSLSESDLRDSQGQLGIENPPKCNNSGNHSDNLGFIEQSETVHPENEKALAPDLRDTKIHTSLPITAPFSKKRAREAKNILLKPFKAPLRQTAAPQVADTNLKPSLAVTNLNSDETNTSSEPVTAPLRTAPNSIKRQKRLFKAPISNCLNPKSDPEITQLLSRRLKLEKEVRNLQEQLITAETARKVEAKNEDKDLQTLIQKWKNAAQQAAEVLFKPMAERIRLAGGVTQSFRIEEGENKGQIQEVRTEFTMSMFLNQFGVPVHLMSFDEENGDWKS

Molecule: Sfr1 (from UniProt Q9USV1) EGFP-Sfr1-7D
other: % of Rad51 foci co-localised with EGFP-Sfr1 foci (Rad51 [1]): weaker; reference 78

B1: Rad51 (untagged) (natural protein, S. pombe, UniProt P36601 1-365, looked up)
chain: MADTEVEMQVSAADTNNNENGQAQSNYEYDVNVQDEEDEAAAGPMPLQMLEGNGITASDIKKIHEAGYYTVESIAYTPKRQLLLIKGISEAKADKLLGEASKLVPMGFTTATEYHIRRSELITITTGSKQLDTLLQGGVETGSITELFGEFRTGKSQICHTLAVTCQLPIDMGGGEGKCLYIDTEGTFRPVRLLAVADRYGLNGEEVLDNVAYARAYNADHQLELLQQAANMMSESRFSLLVVDSCTALYRTDFSGRGELSARQMHLARFMRTLQRLADEFGIAVVITNQVVAQVDGISFNPDPKKPIGGNILAHSSTTRLSLRKGRGEQRICKIYDSPCLPESEAIFAINSDGVGDPKEIIAPV
notes: Rad51 recombinase, S. pombe, untagged, in pET-11d; Plasmid ordered from GeneUniversal or GeneCust; also called pET-11d rad51 (CMC99); recombinase Rad51; source: E. coli BL21 DE3, in cleared lysate
efficiency of binding compared to control GST-Sfr1 (Rad51/GST ratio) (GST-Sfr1-WI): 17%
efficiency of binding compared to control GST-Sfr1 (Rad51/GST ratio) (GST-Sfr1-7A): 81%

The remaining lines, values ahead:

other: % of Rad51 foci co-localised with EGFP-Sfr1 foci (Rad51 [1]): same; reference 78
Molecule: Sfr1 (from UniProt Q9USV1) EGFP-Sfr1-7A

percent of reference (Rad51 [2]): 81%
Molecule: Sfr1 (from UniProt Q9USV1) GST-Sfr1-7A
